According to paper PMC13185593:
pKd: −log10 of the molar value.

System: HuR
Test: SPR
Settings: SPR: 25 mM Tris pH 7.5, 100 mM KCl, 7 mM b-mercaptoethanol, 10% glycerol, 25 C, UV crosslinking: 5 mM HEPES pH 7.6, 25 mM KCl, 2 mM MgCl2, 3.8% glycerol

SARS-CoV-2 5'-UTR WT, biotin (SPR)
pKd: 7.49
